{"source": "patent US20080045451A1", "about": "“Novel thymidylate synthase mutants” (priority 2000, published 2008)", "key": {"[1]": {"system": "E. coli χ2913 cells", "test": "Survival of TS-deficient E. coli χ2913 expressing wild type or mutant TS on M9 plates containing 5-FdUR", "assay_type": "cell-based", "conditions": "for resistance to 5-FdUR (survival curves), in words: FIG. 3A-3C, single mutants made by site-directed mutagenesis", "experimental": "The resistance of each of the 41 mutants to 5-FdUR is expressed as fold enhancement in survival relative to wild type determined in parallel assays. All assays were carried out in duplicate at varying concentration of 5-FdUR and most comparison were repeated in two or more separate experiments. […] Only those experiments in which the survival of the wild type was lower than 1% were included in this tabulation. The percent survival of the wild type at the indicated concentrations of 5-FdUR is as follows: (a) 0.4% in 0.4 nM; (b) <0.1% in a 150 nM; (c) 0.1% at 150 nM; (d) 0 at 300 nM; (e) 0.5% at 150 nM; (f) 0 at 200 nM; (g) 0.95 at 150 nM.\nE. coli χ2913 cells harboring plasmids with random substitutions encoding different amino acids, the TS library, were grown overnight at 37° C. in 2×YT medium containing 50 mg/ml of carbenicillin and 50 mg/ml thymidine. Cultures were diluted 1:100 in the same medium and grown at 37° C. until the OD600 reached 0.6 to 0.8. Aliquots (1 ml) of the exponentially growing cells were pelleted and resuspended in M9 salts and plated on three different media. On 1×YT containing […] of carbenicillin and supplemented with 50 mg/ml of thymidine, essentially all cells harboring the plasmid DNA should be recovered. On M9 plates containing carbenicillin, only cells expressing active TS proteins should grow because the medium lacks thymidine. Drug resistant clones were selected on M9 plates containing carbenicillin and increasing concentrations of 5FdUR essentially as previously described (Landis, D. M., Loeb, L. A., 1998, J. Biol. Chem. 273:25809-25817)\nTo isolate mutants that render E. coli χ2913 resistant to 5-FdUR, the TS library was plated on M9 minimal medium containing 200 or 300 nM 5-FdUR. […] Resistant colonies were selected and plasmid DNA was isolated and re-transformed into fresh χ2913 cells to confirm that the plasmid was the source of the drug-resistant phenotype.\nTo obtain a profile of amino acid replacements conferring resistance, the remaining, 3′-proximal third of the cDNA from each of the 33 mutants was sequenced. […] Resistance is recorded as percent survival relative to percent survival of host cells harboring wild type TS at 150 nM 5-FdUR of greater. Expression of TS in 10 of the resistant mutants was analyzed by Western blotting with antiserum directed against human TS. The level of expression of wild type TS was more than 2-fold greater than that of any of the mutants, estimated by visual inspection of the gel (data not shown). The mutant proteins may be more labile than the wild type or more susceptible to proteolytic degradation."}, "[2]": {"system": "bacterial strain χ2913", "test": "Testing the 5-FU-resistance of TS-mutants: colonies of transfected χ2913 on 5-FdUR selection plates", "assay_type": "cell-based", "conditions": "200 nM 5-FdUR, FIG. 5", "experimental": "The bacterial strain χ2913 was transfected with expressions vectors of the TS-mutants and defined amounts of bacteria in the exponential growth phase were plated on selection plates. The selection plates contained increasing concentrations of 5-fluorodeoxyuridine (0, 75, 150, 200, respectively 300 nM). 5-fluorodeoxyuridine (5-FdUR) is a very effective metabolite, which is generated from 5-fluorouracil in the cell. The selection plates were made of minimal medium, which contained carbenicilline and tetracycline. […] After 36 to 48 hours the number of growing colonies was determined. For this the number of colonies of bacteria, which were transfected with wild type thymidylate synthase was set as 100% and all other numbers of colonies were correspondingly converted to % values."}, "[3]": {"test": "Inhibition constants (Ki) for 5-FdUMP from Dixon plot", "assay_type": "biochemical, human", "conditions": "25° C.", "experimental": "TS activity was monitored spectrophotometrically by the increase in absorbance at 340 nm that occurs concomitant with the production of H2 folate (Δε=6400 M^−1 cm^−1). The reaction buffer contained 50 mM TES (pH 7.4), 25 mM NaCl, 6.5 mM formaldehyde, 1 mM EDTA and 150 μM 2-mercaptoethanol. When the concentration of dUMP was varied, a high concentration of (6R)—CH2H4 folate was added (3001200 mM of a racemic mixture); when the concentration of (6R)—CH2H4-folate was varied, the concentration of dUMP was 400 μM. Purified wild type or mutant TS protein was added to initiate the reaction at 25° C. Initial velocity measurements were obtained with a Perkin Elmer Lambda Bio 20 UV/VIS spectrophotometer. Steady-state kinetic parameters were derived by a nonlinear least squares fit of the data to the Michaelis Menten equation with KaleidaGraph 3.0 software (Abelbeck Software, Reading Pa.). […] Two dUMP concentrations (30 μM and 300 μM) were used, and FdUMP concentrations were varied. To initiate reactions, CH2H4-folate was added to yield a final concentration of 300 μM of the active isomer."}}, "note": "“And” between values parts separate entries of the source, which are not always exact repeats. Equal values may be shown once. “Also recorded” adds a separate entry of the source."}
{"molecule": "T51S;G52S (protein) MPVAGSELPRRPLPPAAQERDAEPRPPHGELQYLGQIQHILRCGVRKDDRSSTGTLSVFGMQARYSLRDEFPLLTTKRVFWKGVLEELLWFIKGSTNAKELSSKGVKIWDANGSRDFLDSLGFSTREEGDLGPVYGFQWRHFGAEYRDMESDYSGQGVDQLQRVIDTIKTNPDDRRIIMCAWNPRDLPLMALPPCHALCQFYVVNSELSCQLYQRSGDMGLGVPFNIASYALLTYMIAHITGLKPGDFIHTLGDAHIYLNHIEPLKIQLQREPRPFPKLRILRKVEKIDDFKAEDFQIEGYNPHPTIKMEMAV", "values": [{"measurement": "5-FdUR concentration at which colonies formed on minimal plates", "setting": "[1]; side-by-side comparison, FIG. 3A, 200 nM clones did not grow at 250 nM", "value": 200, "unit": "nM"}]}
{"molecule": "D116A (protein) MPVAGSELPRRPLPPAAQERDAEPRPPHGELQYLGQIQHILRCGVRKDDRTGTGTLSVFGMQARYSLRDEFPLLTTKRVFWKGVLEELLWFIKGSTNAKELSSKGVKIWDANGSRAFLDSLGFSTREEGDLGPVYGFQWRHFGAEYRDMESDYSGQGVDQLQRVIDTIKTNPDDRRIIMCAWNPRDLPLMALPPCHALCQFYVVNSELSCQLYQRSGDMGLGVPFNIASYALLTYMIAHITGLKPGDFIHTLGDAHIYLNHIEPLKIQLQREPRPFPKLRILRKVEKIDDFKAEDFQIEGYNPHPTIKMEMAV", "values": [{"measurement": "resistance to 5-FdUR (survival curves), in words", "setting": "[1]", "value": "yield resistance"}]}
{"molecule": "D254A (protein) MPVAGSELPRRPLPPAAQERDAEPRPPHGELQYLGQIQHILRCGVRKDDRTGTGTLSVFGMQARYSLRDEFPLLTTKRVFWKGVLEELLWFIKGSTNAKELSSKGVKIWDANGSRDFLDSLGFSTREEGDLGPVYGFQWRHFGAEYRDMESDYSGQGVDQLQRVIDTIKTNPDDRRIIMCAWNPRDLPLMALPPCHALCQFYVVNSELSCQLYQRSGDMGLGVPFNIASYALLTYMIAHITGLKPGDFIHTLGAAHIYLNHIEPLKIQLQREPRPFPKLRILRKVEKIDDFKAEDFQIEGYNPHPTIKMEMAV", "values": [{"measurement": "resistance to 5-FdUR (survival curves), in words", "setting": "[1]", "value": "higher resistance than wild type TS"}]}
{"molecule": "D254E (protein) MPVAGSELPRRPLPPAAQERDAEPRPPHGELQYLGQIQHILRCGVRKDDRTGTGTLSVFGMQARYSLRDEFPLLTTKRVFWKGVLEELLWFIKGSTNAKELSSKGVKIWDANGSRDFLDSLGFSTREEGDLGPVYGFQWRHFGAEYRDMESDYSGQGVDQLQRVIDTIKTNPDDRRIIMCAWNPRDLPLMALPPCHALCQFYVVNSELSCQLYQRSGDMGLGVPFNIASYALLTYMIAHITGLKPGDFIHTLGEAHIYLNHIEPLKIQLQREPRPFPKLRILRKVEKIDDFKAEDFQIEGYNPHPTIKMEMAV", "values": [{"measurement": "survival rate of bacteria transfected with TS expression vector", "setting": "[2]", "value": 80, "unit": "%"}, {"measurement": "resistance to 5-FdUR (survival curves), in words", "setting": "[1]", "value": "higher resistance than wild type TS"}]}
{"molecule": "T53S (protein) MPVAGSELPRRPLPPAAQERDAEPRPPHGELQYLGQIQHILRCGVRKDDRTGSGTLSVFGMQARYSLRDEFPLLTTKRVFWKGVLEELLWFIKGSTNAKELSSKGVKIWDANGSRDFLDSLGFSTREEGDLGPVYGFQWRHFGAEYRDMESDYSGQGVDQLQRVIDTIKTNPDDRRIIMCAWNPRDLPLMALPPCHALCQFYVVNSELSCQLYQRSGDMGLGVPFNIASYALLTYMIAHITGLKPGDFIHTLGDAHIYLNHIEPLKIQLQREPRPFPKLRILRKVEKIDDFKAEDFQIEGYNPHPTIKMEMAV", "values": [{"measurement": "resistance to 5-FdUR (survival curves), in words", "setting": "[1]", "value": "less resistant than the double mutant, but more resistant than wild type TS; also recorded: less resistant than Y258F"}]}
{"molecule": "T51S: human TS single mutant T51S (protein) MPVAGSELPRRPLPPAAQERDAEPRPPHGELQYLGQIQHILRCGVRKDDRSGTGTLSVFGMQARYSLRDEFPLLTTKRVFWKGVLEELLWFIKGSTNAKELSSKGVKIWDANGSRDFLDSLGFSTREEGDLGPVYGFQWRHFGAEYRDMESDYSGQGVDQLQRVIDTIKTNPDDRRIIMCAWNPRDLPLMALPPCHALCQFYVVNSELSCQLYQRSGDMGLGVPFNIASYALLTYMIAHITGLKPGDFIHTLGDAHIYLNHIEPLKIQLQREPRPFPKLRILRKVEKIDDFKAEDFQIEGYNPHPTIKMEMAV", "values": [{"measurement": "Ki for 5-FdUMP, increase over wild type TS", "setting": "[3]", "value": 11, "unit": "fold"}]}
{"molecule": "wild type TS: wild type human thymidylate synthase (SEQ ID NO: 7) (protein, listed as Homo sapiens) MPVAGSELPRRPLPPAAQERDAEPRPPHGELQYLGQIQHILRCGVRKDDRTGTGTLSVFGMQARYSLRDEFPLLTTKRVFWKGVLEELLWFIKGSTNAKELSSKGVKIWDANGSRDFLDSLGFSTREEGDLGPVYGFQWRHFGAEYRDMESDYSGQGVDQLQRVIDTIKTNPDDRRIIMCAWNPRDLPLMALPPCHALCQFYVVNSELSCQLYQRSGDMGLGVPFNIASYALLTYMIAHITGLKPGDFIHTLGDAHIYLNHIEPLKIQLQREPRPFPKLRILRKVEKIDDFKAEDFQIEGYNPHPTIKMEMAV", "values": [{"measurement": "survival rate of bacteria transfected with TS expression vector", "setting": "[2]", "value": "no wild type TSWT survived"}, {"measurement": "percent survival of the wild type", "setting": "[1]; 0.4 nM 5-FdUR", "value": 0.4, "unit": "%"}, {"measurement": "percent survival of the wild type", "setting": "[1]; 150 nM 5-FdUR, separate experiments (b), (c), (e), (g)", "value": "< 0.1% and 0.1% and 0.5% and 0.95%"}, {"measurement": "percent survival of the wild type", "setting": "[1]; 200 nM 5-FdUR", "value": 0, "unit": "%"}, {"measurement": "percent survival of the wild type", "setting": "[1]; 300 nM 5-FdUR", "value": 0, "unit": "%"}]}
{"molecule": "M219V (protein) MPVAGSELPRRPLPPAAQERDAEPRPPHGELQYLGQIQHILRCGVRKDDRTGTGTLSVFGMQARYSLRDEFPLLTTKRVFWKGVLEELLWFIKGSTNAKELSSKGVKIWDANGSRDFLDSLGFSTREEGDLGPVYGFQWRHFGAEYRDMESDYSGQGVDQLQRVIDTIKTNPDDRRIIMCAWNPRDLPLMALPPCHALCQFYVVNSELSCQLYQRSGDVGLGVPFNIASYALLTYMIAHITGLKPGDFIHTLGDAHIYLNHIEPLKIQLQREPRPFPKLRILRKVEKIDDFKAEDFQIEGYNPHPTIKMEMAV", "values": [{"measurement": "resistance to 5-FdUR (survival curves), in words", "setting": "[1]", "value": "yield resistance"}]}
{"molecule": "D254N (protein) MPVAGSELPRRPLPPAAQERDAEPRPPHGELQYLGQIQHILRCGVRKDDRTGTGTLSVFGMQARYSLRDEFPLLTTKRVFWKGVLEELLWFIKGSTNAKELSSKGVKIWDANGSRDFLDSLGFSTREEGDLGPVYGFQWRHFGAEYRDMESDYSGQGVDQLQRVIDTIKTNPDDRRIIMCAWNPRDLPLMALPPCHALCQFYVVNSELSCQLYQRSGDMGLGVPFNIASYALLTYMIAHITGLKPGDFIHTLGNAHIYLNHIEPLKIQLQREPRPFPKLRILRKVEKIDDFKAEDFQIEGYNPHPTIKMEMAV", "values": [{"measurement": "resistance to 5-FdUR (survival curves), in words", "setting": "[1]", "value": "higher resistance than wild type TS"}]}
{"molecule": "Y258F: human TS single mutant Y258F made by site-directed mutagenesis (protein) MPVAGSELPRRPLPPAAQERDAEPRPPHGELQYLGQIQHILRCGVRKDDRTGTGTLSVFGMQARYSLRDEFPLLTTKRVFWKGVLEELLWFIKGSTNAKELSSKGVKIWDANGSRDFLDSLGFSTREEGDLGPVYGFQWRHFGAEYRDMESDYSGQGVDQLQRVIDTIKTNPDDRRIIMCAWNPRDLPLMALPPCHALCQFYVVNSELSCQLYQRSGDMGLGVPFNIASYALLTYMIAHITGLKPGDFIHTLGDAHIFLNHIEPLKIQLQREPRPFPKLRILRKVEKIDDFKAEDFQIEGYNPHPTIKMEMAV", "values": [{"measurement": "Ki for 5-FdUMP, increase over wild type TS", "setting": "[3]", "value": 3.1, "unit": "fold"}, {"measurement": "resistance to 5-FdUR (survival curves), in words", "setting": "[1]", "value": "less resistant than the double mutant, but more resistant than wild type TS"}]}
